Experimental data from US11583589B2, “Cell membrane penetrating conjugates” (priority 2017, dated 2023).

Test system: HeLa cells
Assay: Cellular uptake of NHS-coumarin labelled proteins, fluorescence microscopy
Format: cell-based
Description: Labelling of proteins with fluorescent dyes—Fluorescent dyes were considered as an example of a functional molecule for investigating the cell membrane penetration ability of the conjugate. Labelling of the recombinant protein with a dye was carried out by performing a series of reaction in dark conditions. The protein to be labelled was collected in PBS buffer (1× and pH 7.3) and the dye was collected at two to three times higher concentration to that of the protein. The protein was added to 0.1M sodium carbonate buffer (pH 8.5) followed by the dye. The dye was added very slowly (30 μl each time) to the buffer containing the protein kept on ice accompanied by occasional shaking. The resulting solution was wrapped with aluminium foil to keep away any light. The solution was stirred for 1 hour at room temperature and was then purified by gel filtration, i.e. passed through a desalting column or a PD 10 column with 1×PBS buffer. […]
Cellular uptake of labelled proteins—The uptake of labelled proteins was checked by treating mammalian cells with different labelled proteins such as AlbG (SEQ ID NO: 1), EfsQNR (SEQ ID NO: 2) and, as a comparative example, TtCuA (SEQ ID NO: 13). […] The cells were then washed twice, after 3 hours and 24 hours with HBSS (Hanks […] salt solution) or PBS and observed under fluorescence microscopy and/or confocal laser scanning microscope. […]

B1: TtCuA-NHSC: comparative example: TtCuA protein (SEQ ID NO: 13, Thermus thermophilus) labelled with NHS-coumarin dye (conjugate)
chain: AYTLATHTAGVIPAGKLERVDPTTVRQEGPWADPAQAVVQTGPNQYTVYVLAFAFGYQPNPIEVPQGAEIVFKITSPDVIHGFHVEGTNINVEVLPGEVSTVRYTFKRPGEYRIICNQYCGLGHQNMFGTIVVKE
modifications: NHS-coumarin dye label; Amino acid sequence of TtCuA protein
fluorescence inside the cells (presence of conjugate inside the cells) (NHS-C labelled protein, Hoechst Blue co-stain): significantly less fluorescence
cell penetration ability (cell uptake), compared between conjugates (NHS-C labelled proteins): not able to effectively penetrate the cell membrane
